Publication PMC5346706, “Anti-metastatic effect of the TM4SF5-specific peptide vaccine and humanized monoclonal antibody on colon cancer in a mouse lung metastasis model” (Oncotarget, 2016)

Columns and labels:
[1] = target: cyclic peptide hTM4SF5EC2-C (human); assay: SPR; biotinylated peptide immobilized on a streptavidin chip, increasing amounts of antibody applied; SR7500DC Reichert SPR system
[2] = target: T1, Myc-tagged recombinant human TM4SF5 protein (Homo sapiens (Huh-7 cDNA), UniProt O14894); assay: western blotting; whole cell lysates of HEK 293F-EV and HEK 293F-TM4SF5 cells resolved on SDS-PAGE and probed with the antibody; conditions: one partner purified
T1 construct: human transmembrane 4 superfamily member 5 protein (TM4SF5); cDNA amplified from Huh-7 mRNA with the printed primers (5' primer holds the ATG); also called Myc-tagged hTM4SF5; hTM4SF5
T1 sequence (O14894 whole entry): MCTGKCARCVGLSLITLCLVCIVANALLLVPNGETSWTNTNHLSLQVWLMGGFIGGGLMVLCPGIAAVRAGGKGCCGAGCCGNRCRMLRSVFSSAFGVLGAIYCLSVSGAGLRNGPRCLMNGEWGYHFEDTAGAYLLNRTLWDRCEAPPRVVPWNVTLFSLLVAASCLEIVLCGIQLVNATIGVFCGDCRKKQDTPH

Kd [1]: < 0.48 nM | koff [1]: < 1e-05 s⁻¹ | binding result [2]: binds
B1: mouse anti-TM4SF5 monoclonal antibody mEC2-C (antibody, V domains shown)
VH: QVQLEESGPGLVAPSQSLSIICTVSGFSLTSYGVTWVRQPPGKGLEWLGVIWSDGSTNYQSALISRLTISRDNSKSQAFLKLNSLQTDDTATYYCARPSNYYYFDYWGQGTTLTVSS
VL: DIVMTQSPSSLAVSAGERVTLSCKSSQSLFDRRTRKTYLAWYQQKPGQSPKLLISWASTRESGVPDRFTGSGSGTDFTLTISSVQAEDLAVYYCKQSYNLFTFGGGTKLEIK
notes: VH of mEC2-C (mouse VH2 subtype); mouse IgG3 heavy chain constant region; VL of mEC2-C (mouse Vk8 subtype); mouse kappa light chain constant region (cloned with kappa chain primers); Mouse IgG3, kappa; also called mEC2-2; source: hybridoma, purified from ascitic fluid (Protein A column)
